# Laboratory results as given in patent US20190169269.
# T1: Elactiv′ polypeptide (polypeptide derived from tropoelastin, Cys-Flag-tagged)
# T1 chain: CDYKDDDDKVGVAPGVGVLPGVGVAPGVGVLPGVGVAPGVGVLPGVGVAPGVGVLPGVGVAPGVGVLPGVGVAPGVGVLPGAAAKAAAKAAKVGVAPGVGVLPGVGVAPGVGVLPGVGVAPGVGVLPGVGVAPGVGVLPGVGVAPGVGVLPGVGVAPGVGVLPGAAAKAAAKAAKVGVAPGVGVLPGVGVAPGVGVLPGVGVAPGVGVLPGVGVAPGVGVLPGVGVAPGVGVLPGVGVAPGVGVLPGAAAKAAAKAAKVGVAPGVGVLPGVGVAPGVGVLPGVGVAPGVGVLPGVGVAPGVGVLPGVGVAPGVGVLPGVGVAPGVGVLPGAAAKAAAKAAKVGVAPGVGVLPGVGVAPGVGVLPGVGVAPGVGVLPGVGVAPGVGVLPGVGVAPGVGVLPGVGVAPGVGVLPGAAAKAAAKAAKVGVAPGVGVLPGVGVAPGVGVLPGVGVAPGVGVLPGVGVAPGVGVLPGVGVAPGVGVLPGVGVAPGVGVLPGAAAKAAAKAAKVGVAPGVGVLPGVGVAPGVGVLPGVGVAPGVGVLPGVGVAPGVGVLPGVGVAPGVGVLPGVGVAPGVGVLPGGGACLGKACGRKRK
# T2: recombinant human tropoelastin (hTE) (Sigma-Aldrich), P15502
# T2 chain: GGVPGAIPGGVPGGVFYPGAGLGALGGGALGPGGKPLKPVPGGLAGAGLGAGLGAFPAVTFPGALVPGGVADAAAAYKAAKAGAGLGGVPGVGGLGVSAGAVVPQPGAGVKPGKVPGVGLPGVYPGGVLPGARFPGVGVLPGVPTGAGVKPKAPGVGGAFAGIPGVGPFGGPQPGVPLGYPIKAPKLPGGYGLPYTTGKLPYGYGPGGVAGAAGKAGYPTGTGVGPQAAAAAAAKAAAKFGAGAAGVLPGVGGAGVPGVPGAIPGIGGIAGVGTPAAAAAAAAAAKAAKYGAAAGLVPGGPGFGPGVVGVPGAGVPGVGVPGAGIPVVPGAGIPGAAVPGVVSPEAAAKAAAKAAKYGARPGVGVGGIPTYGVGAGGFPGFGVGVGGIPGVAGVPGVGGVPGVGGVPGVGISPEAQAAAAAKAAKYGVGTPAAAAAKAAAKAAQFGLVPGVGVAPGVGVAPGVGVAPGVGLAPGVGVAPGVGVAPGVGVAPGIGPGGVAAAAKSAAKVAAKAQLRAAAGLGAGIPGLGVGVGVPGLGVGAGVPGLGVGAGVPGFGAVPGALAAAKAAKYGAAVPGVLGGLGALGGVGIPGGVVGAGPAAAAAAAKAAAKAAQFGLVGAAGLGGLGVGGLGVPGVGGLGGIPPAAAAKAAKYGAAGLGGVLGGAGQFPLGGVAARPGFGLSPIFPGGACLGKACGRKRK
# Experiments:
# [1] = target: T1, Elactiv′ polypeptide (polypeptide …)
# [2] = target: T2, recombinant human tropoelastin (hTE) …
protein,measurement,setting,value
recombinant human MMP-12 (protein) GPVWRKHYITYRINNYTPDMNREDVDYAIRKAFQVWSNVTPLKFSKINTGMADILVVFARGAHGDFHAFDGKGGILAHAFGPGSGIGGDAHFDEDEFWTTHSGGTNLFLTAVHEIGHSLGLGHSSDPKAVMFPTYKYVDINTFRLSADDIRGIQSLYGDPKENQRLPNPDNSEPALCDPNLSFDAVTTVGNKIFFFKDRFFWLKVSERPKTSVNLISSLWPTLPSGIEAAYEIEARNQVFLFKDDKYWLISNLRPEPNYPKSIHSFGFPNFVKKIDAAVFNPRFYRTYFFVDNQYWRYDERRQMMDPGYPKLITKNFQGIGPKIDAVFYSKNKYYYFFQGSNQFEYDFLLQRITKTLKSNSWFGC,"kinetics of degradation by rhMMP-12, Western blot",[1],"Elactiv′ is progressively degraded by MMP-12, but to a lesser extent than human tropoelastin"
same,"kinetics of degradation by rhMMP-12, Western blot",[2],"Elactiv′ is progressively degraded by MMP-12, but to a lesser extent than human tropoelastin"
